{"source": "paper PMC7109175", "origin": "cited, not measured here", "target": "cMyBP-C (Mus musculus) (UniProt O70468)", "sequence (O70468 whole entry)": "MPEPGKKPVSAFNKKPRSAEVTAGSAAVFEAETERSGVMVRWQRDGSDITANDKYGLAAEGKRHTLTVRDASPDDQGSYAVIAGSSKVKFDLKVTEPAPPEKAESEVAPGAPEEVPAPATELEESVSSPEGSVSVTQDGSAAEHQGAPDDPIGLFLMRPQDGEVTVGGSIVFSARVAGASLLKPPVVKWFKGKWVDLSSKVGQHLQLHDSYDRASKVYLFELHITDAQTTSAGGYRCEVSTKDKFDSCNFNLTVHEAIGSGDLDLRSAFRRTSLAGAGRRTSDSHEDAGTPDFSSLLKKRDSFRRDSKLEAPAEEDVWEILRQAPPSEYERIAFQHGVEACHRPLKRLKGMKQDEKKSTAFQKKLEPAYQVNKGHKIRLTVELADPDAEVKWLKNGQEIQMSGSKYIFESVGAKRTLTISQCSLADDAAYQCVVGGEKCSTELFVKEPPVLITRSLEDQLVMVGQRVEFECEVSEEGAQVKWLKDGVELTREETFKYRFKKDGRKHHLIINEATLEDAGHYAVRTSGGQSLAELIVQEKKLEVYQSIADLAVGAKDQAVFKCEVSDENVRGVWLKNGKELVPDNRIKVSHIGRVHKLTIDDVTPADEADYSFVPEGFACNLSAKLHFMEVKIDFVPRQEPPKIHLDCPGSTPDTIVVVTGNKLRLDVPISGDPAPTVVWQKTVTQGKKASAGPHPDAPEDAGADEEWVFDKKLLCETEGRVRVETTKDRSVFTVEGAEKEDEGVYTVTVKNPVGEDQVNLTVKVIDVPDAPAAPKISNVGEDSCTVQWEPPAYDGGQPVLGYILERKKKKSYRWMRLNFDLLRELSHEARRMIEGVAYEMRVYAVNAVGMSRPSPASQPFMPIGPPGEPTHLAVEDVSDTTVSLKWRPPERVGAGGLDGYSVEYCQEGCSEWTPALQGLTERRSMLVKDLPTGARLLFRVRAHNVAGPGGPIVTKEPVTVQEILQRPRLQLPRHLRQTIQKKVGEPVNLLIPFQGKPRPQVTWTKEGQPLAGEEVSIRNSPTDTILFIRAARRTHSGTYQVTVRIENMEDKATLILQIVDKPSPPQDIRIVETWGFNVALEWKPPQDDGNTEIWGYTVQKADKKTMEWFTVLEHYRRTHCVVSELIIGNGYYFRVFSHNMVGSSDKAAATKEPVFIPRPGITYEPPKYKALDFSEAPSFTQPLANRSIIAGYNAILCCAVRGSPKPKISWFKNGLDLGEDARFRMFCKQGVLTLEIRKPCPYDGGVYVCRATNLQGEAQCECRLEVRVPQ", "data": [{"substance": "Fhod3 (from UniProt Q76LL6)", "values": [{"measurement": "Kd", "value": 800, "unit": "nM"}]}]}
